Laboratory results as given in the supplement of paper PMC9112550, “Optimization of the antimicrobial peptide Bac7 by deep mutational scanning” (BMC Biology, 2022).

Tested on: Escherichia coli TOP10
Assay: shrunken log2 fold change of peptide-encoding DNA abundance (4.5 h post-induction vs induction); higher = less antimicrobial activity (less host growth inhibition)
Details: time post-induction: 4.5 h; library: site-saturation at positions 5, 18, 19, 20
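Also: peptides expressed intracellularly from a pBAD plasmid library in pooled LB shake-flask culture, induced with 0.3% L-arabinose, DNA abundance read by NGS, three biological replicates, DESeq2 with apeglm shrinkage.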

Point of comparison: RRIRCRPPRLPRPRPRPMDIPRP, “shrunken log2 fold change” value 0.00412. Against it:
- RRIRVRPPRLPRPRPRPRRKPRP — within 0.2 log units, 0.0637
- RRIRCRPPRLPRPRPRPIQCPRP — within 0.2 log units, -0.14
- RRIRLRPPRLPRPRPRPMINPRP — lower, -0.224
- RRIRLRPPRLPRPRPRPVYYPRP — lower, -0.633
- RRIRNRPPRLPRPRPRPGAHPRP — within 0.2 log units, 0.0408
- RRIRHRPPRLPRPRPRPQWQPRP — within 0.2 log units, -0.0687
- RRIRSRPPRLPRPRPRPYLVPRP — within 0.2 log units, -0.123
- RRIRVRPPRLPRPRPRPIKAPRP — within 0.2 log units, 0.0466
- RRIRHRPPRLPRPRPRPYGVPRP — lower, -0.256
- RRIRPRPPRLPRPRPRPHRRPRP — within 0.2 log units, -0.0778
- RRIRFRPPRLPRPRPRPKSEPRP — lower, -0.213
- RRIRPRPPRLPRPRPRPFDDPRP — within 0.2 log units, -0.189
- RRIRMRPPRLPRPRPRPGFQPRP — within 0.2 log units, 0.151
- RRIRPRPPRLPRPRPRPLTEPRP — within 0.2 log units, 0.0389
- RRIRLRPPRLPRPRPRPDQFPRP — within 0.2 log units, 0.0392
- RRIRHRPPRLPRPRPRPGWYPRP — within 0.2 log units, -0.018
- RRIRVRPPRLPRPRPRPKKGPRP — within 0.2 log units, 0.13
- RRIRGRPPRLPRPRPRPNKDPRP — within 0.2 log units, 0.179
- RRIRFRPPRLPRPRPRPSAIPRP — lower, -0.304
- RRIRDRPPRLPRPRPRPHRMPRP — within 0.2 log units, 0.0707
- RRIRNRPPRLPRPRPRPRNCPRP — within 0.2 log units, -0.0144
- RRIRIRPPRLPRPRPRPQVNPRP — lower, -0.444
- RRIRTRPPRLPRPRPRPELDPRP — higher, 0.641
- RRIRQRPPRLPRPRPRPCHKPRP — within 0.2 log units, 0.0524
- RRIRNRPPRLPRPRPRPCVDPRP — within 0.2 log units, 0.037
- RRIRCRPPRLPRPRPRPQHIPRP — lower, -0.868
- RRIRVRPPRLPRPRPRPTVKPRP — within 0.2 log units, 0.0641
- RRIRFRPPRLPRPRPRPCIGPRP — within 0.2 log units, -0.1
- RRIRKRPPRLPRPRPRPIKGPRP — within 0.2 log units, -0.141
- RRIRFRPPRLPRPRPRPWWEPRP — within 0.2 log units, 0.0381
- RRIRGRPPRLPRPRPRPTWRPRP — higher, 0.673
- RRIRFRPPRLPRPRPRPTIWPRP — within 0.2 log units, -0.000248
- RRIRKRPPRLPRPRPRPTNNPRP — lower, -0.2
- RRIRPRPPRLPRPRPRPIQPPRP — within 0.2 log units, -0.0445
- RRIRGRPPRLPRPRPRPLCTPRP — higher, 2.26
- RRIRGRPPRLPRPRPRPWGNPRP — within 0.2 log units, 0.0898
- RRIRIRPPRLPRPRPRPQKPPRP — within 0.2 log units, -0.00327
- RRIRARPPRLPRPRPRPTQQPRP — within 0.2 log units, -0.0711
- RRIRDRPPRLPRPRPRPSRIPRP — lower, -0.307
- RRIRLRPPRLPRPRPRPFLLPRP — lower, -0.47
- RRIRARPPRLPRPRPRPQEMPRP — within 0.2 log units, -0.0254
- RRIRTRPPRLPRPRPRPWAKPRP — within 0.2 log units, 0.057
- RRIRWRPPRLPRPRPRPVREPRP — within 0.2 log units, 0.0727
- RRIRTRPPRLPRPRPRPSSNPRP — lower, -0.589
- RRIRRRPPRLPRPRPRPCHYPRP — within 0.2 log units, 0.00952
- RRIRARPPRLPRPRPRPGWVPRP — higher, 0.29
- RRIRLRPPRLPRPRPRPPRVPRP — higher, 0.536
- RRIRDRPPRLPRPRPRPCKAPRP — within 0.2 log units, -0.0139
- RRIRSRPPRLPRPRPRPCCSPRP — within 0.2 log units, -0.00502
